Results reported in patent US20230287095A1 (published 2023).
Read-outs that look alike come from different tables or passages of the source.

How the values were obtained:
Assay in all cases: ELISA
human pro-EMAPII [1] = target: T1, human pro-EMAPII (human, UniProt Q12904 1-312)
T1 chain: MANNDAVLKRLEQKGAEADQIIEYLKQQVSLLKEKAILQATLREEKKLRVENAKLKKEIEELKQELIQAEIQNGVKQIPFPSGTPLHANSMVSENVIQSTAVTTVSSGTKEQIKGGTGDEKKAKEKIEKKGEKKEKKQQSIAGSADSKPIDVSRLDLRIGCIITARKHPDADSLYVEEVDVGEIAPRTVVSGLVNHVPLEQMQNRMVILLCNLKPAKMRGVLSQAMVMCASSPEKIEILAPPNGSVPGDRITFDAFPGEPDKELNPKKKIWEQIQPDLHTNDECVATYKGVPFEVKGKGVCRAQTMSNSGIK

human pro-EMAPII [2] = target: T1, human pro-EMAPII
human pro-EMAPII [3] = target: T1, human pro-EMAPII
human pro-EMAPII [4] = target: T1, human pro-EMAPII

B1: Rat parental (antibody, V domains shown)
VH: AVHLVESGGGFVQPTESLKISCAASGFTFSDAAMYWVRQAPGKGLEWVARIRTKPNNYATYYADSVKGRFTISRDDSKSMVYLQMDNLKTEDTAMYYCTSWSYDFDYWGQGVMVTVSS
VL: DIVMTQGALPNPVPSGESASITCQSSKSLLHSSGKTYLNWYLQRPGQSPHLLIYWMSTRASGVSDRLSGSGSGTDFTLKISSVEAEDVGVYYCQQFLEYPLTFGSGTKLEIK
EC50 (human pro-EMAPII [1]): 3.39 µg/mL
EC50 (human pro-EMAPII [2]): 3.6 µg/mL
EC50 (human pro-EMAPII [3]): 3.39 µg/mL
EC50 (human pro-EMAPII [4]): 3.6 µg/mL

B2: Chimeric Parental (antibody, V domains shown)
VH: AVHLVESGGGFVQPTESLKISCAASGFTFSDAAMYWVRQAPGKGLEWVARIRTKPNNYATYYADSVKGRFTISRDDSKSMVYLQMDNLKTEDTAMYYCTSWSYDFDYWGQGVMVTVSS
VL: DIVMTQGALPNPVPSGESASITCQSSKSLLHSSGKTYLNWYLQRPGQSPHLLIYWMSTRASGVSDRLSGSGSGTDFTLKISSVEAEDVGVYYCQQFLEYPLTFGSGTKLEIK
EC50 (human pro-EMAPII [1]): 0.329 µg/mL
EC50 (human pro-EMAPII [2]): 0.361 µg/mL
EC50 (human pro-EMAPII [3]): 0.329 µg/mL
EC50 (human pro-EMAPII [4]): 0.361 µg/mL
